Here are results for one molecule from publication PMC11996917, “An inherited predisposition allele promotes gastric cancer via enhancing deubiquitination-mediated activation of epithelial-to-mesenchymal transition signaling”.

In the data set the target is GLI3 (His-tagged; probably zinc-finger fragment) (UniProt P10071 480-632). The data set can be described thus: EMSA; dose-dependent shift; 5 mM MgCl2; EMSA: 20 mM Tris-HCl pH 7.5, 50 mM NaCl, 5 mM MgCl2, 0.2 mM EDTA, 1 mM DTT, 1 h at room temperature; 6% native PAGE. Particulars: protein: recombinant; tags: His; label: biotin; blunt. Background: A gel shift assay detects complexes by their altered migration in electrophoresis.
Sequence of GLI3 (His-tagged; probably zinc-finger fragment) (P10071 480-632): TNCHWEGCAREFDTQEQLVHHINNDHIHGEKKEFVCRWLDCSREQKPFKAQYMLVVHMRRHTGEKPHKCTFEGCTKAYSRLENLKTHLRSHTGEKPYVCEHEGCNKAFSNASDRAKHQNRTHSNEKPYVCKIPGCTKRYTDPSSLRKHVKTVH

B1: rs72856331-G (dsDNA)
DNA 1: CCCCAAGCAGGGGGTGGCCCCTGAG
DNA 2: CTCAGGGGCCACCCCCTGCTTGGGG
For B1, the binding result is listed as “binds”.
